Where a chain is given by its changes, count along the chain named.
B1: KCD128 (antibody, V domains shown)
VH: QVQLQQPGAELVRPESSVKLSCKASGYTFTSYWMDWVMQRPGQGLEWIGNIYPSGSETHYNQKFKDKATLTVDKSSTTAYMQLSSLTFEDSAVYYCARSGFIGSRYLYYFDYWGQGTTLTVSS
VL: DIVMTQSHKFMSTSVGDRVTITCKASQDVSNAVAWYQLKPGQSPKLLIYSASYRYTGVPDRFTGSGSGTDFTFTISSVQAADLAVYYCQQHYITPYTFGGGTKLEIK
B2: KCD212 (antibody, V domains shown)
VH: EVHLVESGGDLVKPGGSLKLSCAASGFTFSRYGMSWVRQTPDKRLEWVATISSAGSYTYYPDSVKGRFTISRDNAKNTLFLQMSSLKSEDTAMYYCARPLNYYGTSSFDYWGQGTTLTVSS
VL: QIVLTQSPAIMSASPGEKVTMTCRASSSVSSTYLHWYQQKPGSSPKLWIYSTSNLASGVPPRFSGSGSGTSYSLTISSVEAEDAATYYCQQYDSSPNTFGAGTKLELK
B3: KCD114 (antibody, V domains shown)
VH: EVQLQQSGPELVKPGASVKISCKASGYSFTAYYMNWVKQSPEKSLEWIGDINPSTGGTTYNQNFKAKATLTVDKSSSTAYMHLKSLTSEDSAVYYCATTYYSGNSYVGFAYWGQGTLVTVSA
VL: DIVMTQSHKFMSTSVGDRVSITCKASQDVSTAVAWYQQKPGQSPKLLIFWASTRHTGVPDRFTGSGSGTDYTLTISSVQAEDLALYYCQQHYSTPWTFGGGTKLEIK
B4: KCD001 (antibody, V domains shown)
VH: EVQLQQSGPELVKPGASVKISCKASDNSFTGYYMHWVKQSHGNILDWIGYIDPYNGVSSYNQKFKGKATLTVDKSSSTAYMEIRSLTSEDSAVYYCASYYGSSPYWYFDVWGTGTTVTVSS
VL: QIVLSQSPAILSASPGEKVTMTCRASSSVSYMHWYQQKPGSSPKPWIYATSNLASGVPARFSGSGSGTSHFLTISRLEAEDAATYFCQQWSSNPYTFGGGTKLEIK
B5: KCD022 (antibody, V domains shown)
VH: DVQLQESGPDLVKPSQSLSLTCTVTGYSITSGYSWHWIRQFPGNTLEWMGYIHYSGSTNYNPSLESRISFTRDTSKNQFFLQLNSVTTEDTATYYCALHFYGYNLGWYFDVWGAGTTVTVSS
VL: DIVMTQSHKFMSTSIGDRVIITCKASQDVGTTVAWYQQRPGQSPKLLIYWASTRHTAVPDRFTGSGSGTDFTLTISNVQSEDLADYFCQQYTSYPLTFGAGTQLELK
B6: KCD137 (antibody, V domains shown)
VH: EVQLVESGGDLVKPGGSLKLSCAASGFTFSGYGMSWVRQIPDKRLEWVAISSRDNSFTYYPDSVKGRFTISRDNAKNTLYLQMSSLKSEDTALYFCTRHPYLPTGGYVMDYWGQGTSVTVSS
VL: B5 VL with I15V, I20S, T32A, A57G, I75V, Q103K
B7: KCD066 (antibody, V domains shown)
VH: QVQLQQSAAELARPGASVKMSCKASGYTFTDYTMHWVKQRPGQGLEWIGYINPSGGYTDYNQKFKDKTALTADKSSSTAYMQLSSLTSEDSAVYYCARRRDYWFAYWGQGTLVTVSA
VL: DIVMSQSPSSLAVSVGEKVTMSCKSSQSLLYSGNQKNYLAWYQQKPGQSPKLLIYWASTRESGVPDRFTGSGSGTDFTLTISSVKAEDLAVYYCHQYYSYLTFGAGTKLELK
B8: KCD033 (antibody, V domains shown)
VH: EVQLQQSGPELVKPGASMKISCTASGYSFTGYTMTWVKQSHGKNLEWIGLINPYNGGTNYNQKFKGKATLTVDKSSSIAYMELLSLTSEDSAVYYCARRHYGSNWDYWGQGTTLTVSS
VL: DIKLTQSPSSIYTSLGERVTITCKASQDINTYLSWFQQRPGKSPKTLIYRADRLVDGVPSRVRGSGSGQDYSLTISSLEYEDMGIYYCLQYDEFPYTFGGGTKLEIK
B9: KCD036 (antibody, V domains shown)
VH: B8 VH with T23K, L70F, I78T, N104S
VL: B8 VL with I11M, T13A, R39K, D52N, V62F, R63S, D82E
notes: chimeric
B10: KCD004 (antibody, V domains shown)
VH: EVQLQQSGAELVRPGSSVKMSCKTSGKTFTSHGINWVKQRPGQGLEWIGYIYIGNGYNEYNEKFKGKATLTSDTSSSTAYMQLSSLTFEDSAIYFCVRKAYGNYGFDDWGQGTTLTVSS
VL: DIQMTQSPTSLSASLGESVSLTCRASQEISGYLNWLQQKPDGSIKRLIYAASTLDSGVPKRFSGSRSGSDYSLTISSLESEDFADYYCLQYANYPFTFGSGTKLEVK
notes: also called OG2063
B11: KCD125 (antibody, V domains shown)
VH: B10 VH with K27N, H32Y, N55T, N58T, F88S, D108Y
VL: B10 VL with T9S, S18R, N34S, S43T, N93S, V106I
B12: KCD126 (antibody, V domains shown)
VH: B10 VH
VL: B10 VL with Y32N
B13: KCD205 (antibody, V domains shown)
VH: B10 VH with K27N, F88S
VL: B10 VL with T9S, S18R, N34S, S43T, R66S, E81D, N93S, V106I
B14: KCD062 (antibody, V domains shown)
VH: EVKLVESGGGLVQPGGSLKLSCAASGFTFSTYIMSWVRQTPEKRLEWVAYITSGGSSTYYPDTVKGRFTISRDNAKSTLYLQMSSLKSEDTAMYYCARHAHFYAMDYWGQGTSVTVSS
VL: DIQMTQSPSSLSASLGGKVTITCKASQDINKYIAWYQHKPGKGPRLLIHYTSTLQPGIPSRFSGSGSGRDYSFSISNLEPEDIATYYCLQYDNLLYTFGGGTKLEIK
B15: KCD064 (antibody, V domains shown)
VH: B14 VH with T31S, E46G, S56G, S77N, A100G, H101T, F102G
VL: B14 VL with K103E
B16: KCD075 (antibody, V domains shown)
VH: QVQLLQPGAELVRPGTSVKLSCKASGYTFSNYWINWVKQRPGQGLEWIGNIYPSDSSINYNQKFKDKATLTVDKSSTTAYMQLSSPTSEDSAVYYCTGTDWYFDVWGAGTTVTVSS
VL: DIQMTQTTSSLSASLGDRVTISCSGGQGISNYLNWYQQKPDGTFKLLIYYTSTLHSGVPSRFSGSGSGTDYSLTISNLEPEDVATYYCQQYSKLPYTFGGGTKLEIK
B17: KCD230 (antibody, V domains shown)
VH: QVQLQQPGTELVKPGASVKLPCKASGYTFTSYWMQWVKQRPGQGLEWIGEIDPSDTYINYNQKFKGKATLTVDTSSTTAYMQLSSLTSEDSAVYYCARYTTIMASDYWGQGTTLTVSS
VL: DIQMTQTTSSLSVSLGDRVTISCRASQDITNYLNWYQQKPDGTVKLLIYFTSRLHSGVPSRFSGSGSGTDYSLTISNLEPEDIATYYCQQYSKLPWTFGGGTKLEIK
B18: KCD139 (antibody, V domains shown)
VH: EVQLQQSGAELVRPGSSVKMSCKTSGYTFTSYGINWVKQRPGQGLEWIGYIYIANGYTENNEKFKGKAKLTSDISSSTAYMQLSSLTSEDSAIYFCARRFDYAGALDYWGQGTSVTVSS
VL: DIVLTQSPASLAVSLGQRATISCRASESVDSYGNSFMHWYQQKPGQPPKLLIHRASNLESGIPARFSGSGSRTDFTLTINPVEADDVAIYYCQQTNDDPYTFGGGTNLEIK
B19: KCD013 (antibody, V domains shown)
VH: EVQLQQSGAELVKPGASVKLSCTASGFKIKDTYMHWVKERPDQGLEWIGRIDPANGNTKYDPKFQGKATITADTSSNTAYLQLSSLTSEDTAVYYCANAMDYWGQGTSVTVSS
VL: QIILTQSPAIMSASPGEKVTMTCSASSSVSNMYWYQQKPGSSPRLLIYDTSNLASGVPVRFSGSGSGASYSLTISRMEAEDAATYYCQQWSSYPWTFGGGTKLEIK
B20: KCD225 (antibody, V domains shown)
VH: QVQLQQSGPELVKPGASVKISCKASGYTFTDYYINWMKQRPGQGLEWIGWIFPGSDSTYYNEKFKGKATLTVDKSSSTAYMLLSSLTSEDSAVYFCARLGYYSHSYYAMDYWGQGTSVTVSS
VL: DIQMTQSPASLSVSTGETVTITCRASENIYSNLAWFQQKQGKSPQLLVYAATNLADGVPSRFSGSGSGTQYSLKITSLQSEDFGSYYCQHFWGTPLTFGAGTKLDLK
B21: KCD219 (antibody, V domains shown)
VH: B20 VH with M37V, D56G, T87P, L99Y, S103G, H104S, Y106F
VL: B20 VL with T15V, F36Y, T76N, T94S, L96P, A100G, D105E, L106I

What follows are binders tested against T1, human complement factor D purified from serum (human, UniProt P00746 26-253) (assay: SPR MX96).
T1 construct: serum-purified (CompTech); also called hCFD-Comptech; CFD
T1 sequence (P00746 26-253): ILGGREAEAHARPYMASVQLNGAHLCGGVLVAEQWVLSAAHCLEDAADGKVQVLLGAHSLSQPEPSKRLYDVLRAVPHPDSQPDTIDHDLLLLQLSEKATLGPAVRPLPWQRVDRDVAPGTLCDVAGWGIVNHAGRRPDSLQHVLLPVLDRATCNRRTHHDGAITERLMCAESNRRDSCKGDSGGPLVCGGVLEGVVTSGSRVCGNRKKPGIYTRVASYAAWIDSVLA

Row | Kd [nM] | Binder
1 | 14 | B1
2 | 0.47 | B2
3 | 8.1 | B3
4 | 0.22 | B4
5 | 57 | B5
6 | 0.5 | B6
7 | 2.9 | B7
8 | 11 | B8
9 | 26 | B9
10 | 0.35 | B10
11 | 3.8 | B11
12 | 0.34 | B12
13 | 3 | B13
14 | 24 | B14
15 | 20 | B15
16 | 3.7 | B16
17 | 2.5 | B17
18 | 5.3 | B18
19 | 7.3 | B19
20 | 8.7 | B20
21 | 4.3 | B21

The binders below were run against T2, recombinant cynomolgus CFD, His-tagged (cynomolgus) (assay: SPR MX96).
T2 construct: also called rcyCFD-His; recombinant Cyno-CFD

Row | Kd [nM] | Binder
22 | 3.3 | B1
23 | 3.8 | B2
24 | 8.4 | B3
25 | 0.63 | B4
26 | 54 | B5
27 | 5.9 | B6
28 | 4 | B7
29 | 93 | B8
30 | 64 | B9
31 | 0.92 | B10
32 | 4.1 | B11
33 | 0.93 | B12
34 | 3.3 | B13
35 | 19 | B14
36 | 15 | B15
37 | 3.2 | B16
38 | 2.7 | B17
39 | 3.8 | B18
40 | 93 | B19
41 | 46 | B20
42 | 12 | B21

These binders were tested against T3, recombinant human CFD, His-tagged (human, UniProt P00746 26-253) (assay: SPR MX96).
T3 construct: also called rhCFD-His
T3 sequence (P00746 26-253 limits assumed): as the sequence (P00746 26-253) above

Row | Kd [nM] | Binder
43 | 14 | B1
44 | 0.21 | B2
45 | 3.8 | B3
46 | 0.22 | B4
47 | 83 | B5
48 | 5.5 | B6
49 | 1.9 | B7
50 | 19 | B8
51 | 29 | B9
52 | 0.24 | B10
53 | 2.5 | B11
54 | 0.29 | B12
55 | 1.9 | B13
56 | 32 | B14
57 | 20 | B15
58 | 2.5 | B16
59 | 1.6 | B17
60 | 3.3 | B18
61 | 11 | B19
62 | 5 | B20
63 | 3 | B21

These binders were tested against T4, recombinant human CFD mutant 1 (R157A, R207A), His-tagged (human, UniProt P00746 26-253) (assay: SPR MX96).
T4 construct: positions are linear positions in the mature protein; also called rhCFD-mut1-His; Mut1
T4 sequence (P00746 26-253 R182A/R232A limits assumed): as the sequence (P00746 26-253) above, with R157A, R207A counted along it

Row | Kd [nM] | Binder
64 | 13 | B1
65 | 0.2 | B2
66 | 8.4 | B3
67 | 0.19 | B4
68 | 110 | B5
69 | 4.6 | B6
70 | 1.2 | B7
71 | 28 | B8
72 | 80 | B9
73 | 0.14 | B10
74 | 2.7 | B11
75 | 0.18 | B12
76 | 1.8 | B13
77 | 62 | B14
78 | 37 | B15
79 | 3.4 | B16
80 | 0.88 | B17
81 | 3.5 | B18
82 | 19 | B19
83 | 6.2 | B20
84 | 3.6 | B21

From patent publication US20180334496A1 (KODIAK SCIENCES, published 2018)
